From article PMC9937993, “Structures of the NDP-pyranose mutase belonging to glycosyltransferase family 75 reveal residues important for Mn^2+ coordination and substrate binding” (The Journal of Biological Chemistry, 2023)

Biological target: the molecule itself
Assay: SEC; size exclusion chromatography of AtRGP2 WT and its F280D/L283D/Y287D mutant (Fig. S12A); column and buffer not given

B1: AtRGP2 wildtype, recombinant (enzyme)
chain: not shown
notes: AtRGP2, UniProtKB Q9LFW1; codon-optimized gene cloned into pET32a; Only the vector pET32a and the nickel-sepharose purification are stated; also called AtRGP2 WT; source: E. coli BL21-Gold (DE3), purified (nickel-sepharose, Superdex 200)
binding result: binds
